One series deals with WT cardiomyocytes. Nature of the series: Confocal Ca2+ imaging in WT cardiomyocytes after adenoviral expression. Type of series: cell-based, mouse. As to conditions: 1-Hz field stimulation; overexpression in WT cardiomyocytes. As to the method: (§1) Genecarrior-1 (Epoch Lab) was used to transfect plasmids into HEK293T cells. Isolation and culture of cardiomyocytes were performed as described previously (Guo et al., 2012). […] Ca^2+ Imaging experiments were performed 40 hours after adenoviral infection.
Cells were loaded with Rhod-2AM at 37° C. for 20 minutes, followed by washing with Tyrode's solution at room temperature for 15 minutes before Ca^2+ imaging. Confocal images were acquired using a ×63, 1.3 numerical aperture oil immersion objective mounted on a Zeiss LSM 510 confocal microscope. Confocal line scanning was used to record Ca^2+ signals. Steady-state Ca^2+ transients were recorded in Tyrode's solution containing 1.8 mM Ca^2+ under field stimulation of 1 Hz. At least five steady-state transients for each cell were analyzed and averaged to represent Ca^2+ signals of the cell. Ca^2+ imaging data were analyzed by using a home-complied software, CaTeasy, which is coded in MATLAB 2013a (Mathworks). Briefly, the program normalizes Ca^2+ transient images on a column-by-column basis (512 columns/image). The characteristic parameters of normalized transients were detected automatically. The firing time of every scanning pixel was detected column by column on the basis of the maximum local variability of pixel intensity. The profile of the point-to-point firing time was indicated by a red line overlapping on the Ca^2+ image. […]

Another series deals with RyR2 and Cav1.2. As to the kind of experiment: Coimmunoprecipitation with E-C coupling channels. In kind it is binding, mouse. The conditions noted are these: anti-HA immunoprecipitation. The text has this:
FIGS. 5A-H. JP2 truncations are nonfunctional in regulating Ca^2+ transients. A) An antibody against the HA tag was used to reveal the localization of adenoviral expression of tagged full-length JP2 and truncations, as indicated, in adult wild-type cardiomyocytes. All the three version of JP2 can be localized in the striated pattern. B) Full-length JP2 and JP2(1-565) forms complexes with RyR2 and Cav1.2 In vivo. An antibody against HA was used for immunoprecipitation […]. The RyR2 and Cav1.2 that were pulled down were detected by Western blot analysis. […] IB, immunoblot. C) Adenovirus-mediated expression of full-length JP2, FLAG-JP2(1-565)-HA, and JP2(566-end)-HA in JP2-KD) cardiomyocytes. D) Representative steady-state Ca^2+ transients under 1-Hz field stimulation. The fluorescence intensity (F) of Ca^2+ imaging was normalized to the baseline (FO). The red lines overlapping on Ca^2+ imaging show the profile of the moment of Ca^2+ transient firing on the scanning line in a point-by-point way. A straighter line means better synchronization of the Ca^2+ transients. Note that expression of full-length JP2, but not JP2 truncations, improves the amplitude and synchronization of Ca^2+ transients. E-G) Summary of Ca^2+ transient amplitude, index of desynchronization (mean absolute deviation of firing time), and duration of 50% decay (T5) (n=68, 70, 70, and 52 for Ad-Empty, Ad-JP2, […], and Ad-JP2(566-end), respectively). Only full-length JP2 Improves the amplitude, synchronization, and decay of Ca^2+ transients. H) Summary of SR Ca^2+ content, which was assessed by caffeine-induced SR Ca^2+ release (n=17, 17, 17, and 12 for Ad-Empty, Ad-JP2, Ad-JP2(1-565), and Ad-JP2(566-end), respectively). **, p<0.01 versus indicated groups; N.S., not significant.
Cleavage at the primary calpain proteolysis site (Arg-565/Thr-566) splits apart the C-terminal SR-binding TM domain and N-terminal plasma membrane-binding MORN domains of JP2. […]

Series [1] concerns cultured adult murine cardiomyocytes. As to the kind of experiment: Affymetrix Genechip analysis of cultured cardiomyocytes. As to conditions: vs Ad-Empty control. Type of series: cell-based, mouse. As to the method:
Genecarrior-1 (Epoch Lab) was used to transfect plasmids into HEK293T cells. Isolation and culture of cardiomyocytes were performed as described previously (Guo et al., 2015). Adenoviruses were applied at a multiplicity of infection (MOI) of about 100, which results in transfection of almost all cells as confirmed by immunostaining of eptiope tags.
Microarray assay was performed by Affymetrix GeneChip® Mouse Genome 430 2.0 according to the standard procedure of cRNA preparation and Genechip hybridization. The R package limma (version 3.22.7) (Ritchie et al., 2015) was used for processing microarray data and identifying differentially expressed genes (the cutoff of significance was p value<0.01). David (Huang et al., 2009) was used for gene enrichment (GO) analysis. Ingenuity pathway analysis (IPA, Qiagen) was used for pathway analysis.

A further series concerns JP2-KD cardiomyocytes. As to the kind of experiment: Confocal Ca2+ imaging in JP2-KD cardiomyocytes after adenoviral expression. Type of series: cell-based, mouse.
Text: Specifically, conditional shJP2 mice (provided by Dr. Wehrens) (van Oort et al., 2011) were crossed with mice carrying the cardiac-specific α-myosin heavy chain promoter upstream of Cre (% MHC-Cre, also FVB-Tg(Myh6-cre)2182Mds/J, The Jackson Laboratory). The shJP2 mice were maintained on a C57BL/6 background for more than 10 generations. The αMHC-Cre mice were maintained on an FVB background. PCR was used to genotype the offspring. The near complete depletion of JP2 protein in JP2-KD (αMHC-Cre X shJP2) hearts has been reported recently (Chen et al., 2013). JP2-KD mice were sacrificed at 2 months of age for isolation and culture of ventricular cardiomyocytes as described below.
as §1
Cells were loaded with Rhod-2AM at 37° C. for 20 minutes, followed by washing with Tyrode's solution at room temperature for 15 minutes before Ca^2+ imaging. Confocal images were acquired using a ×63, 1.3 numerical aperture oil immersion objective mounted on a Zeiss LSM 510 confocal microscope. Confocal line scanning was used to record Ca^2+ signals. Steady-state Ca^2+ transients were recorded in Tyrode's solution containing 1.8 mM Ca^2+ under field stimulation of 1 Hz. At least five steady-state transients for each cell were analyzed and averaged to represent Ca^2+ signals of the cell. Ca^2+ imaging data were analyzed by using a home-complied software, CaTeasy, which is coded in MATLAB 2013a (Mathworks). Briefly, the program normalizes Ca^2+ transient images on a column-by-column basis (512 columns/image). The characteristic parameters of normalized transients were detected automatically. The firing time of every scanning pixel was detected column by column on the basis of the maximum local variability of pixel intensity. The profile of the point-to-point firing time was indicated by a red line overlapping on the Ca^2+ image. Index of desynchronization, defined by the mean absolute deviation of firing time of each scanning pixel (with every 8 pixels binned), was used to evaluate the dyssynchrony of Ca^2+ transients. This automated software for calcium transient analysis is available upon request.

B1: full-length JP2: full-length junctophilin-2, FLAG/HA tagged, expressed by adenovirus (protein, UniProt Q9BR39 1-696, looked up)
chain: MSGGRFDFDDGGAYCGGWEGGKAHGHGLCTGPKGQGEYSGSWNFGFEVAGVYTWPSGNTFEGYWSQGKRHGLGIETKGRWLYKGEWTHGFKGRYGIRQSSSSGAKYEGTWNNGLQDGYGTETYADGGTYQGQFTNGMRHGYGVRQSVPYGMAVVVRSPLRTSLSSLRSEHSNGTVAPDSPASPASDGPALPSPAIPRGGFALSLLANAEAAARAPKGGGLFQRGALLGKLRRAESRTSVGSQRSRVSFLKSDLSSGASDAASTASLGEAAEGADEAAPFEADIDATTTETYMGEWKNDKRSGFGVSERSSGLRYEGEWLDNLRHGYGCTTLPDGHREEGKYRHNVLVKDTKRRMLQLKSNKVRQKVEHSVEGAQRAAAIARQKAEIAASRTSHAKAKAEAAEQAALAANQESNIARTLARELAPDFYQPGPEYQKRRLLQEILENSESLLEPPDRGAGAAGLPQPPRESPQLHERETPRPEGGSPSPAGTPPQPKRPRPGVSKDGLLSPGAWNGEPSGEGSRSVTPSEGAGRRSPARPATERMAIEALQAPPAPSREPEVALYQGYHSYAVRTTPPEPPPFEDQPEPEVSGSESAPSSPATAPLQAPTLRGPEPARETPAKLEPKPIIPKAEPRAKARKTEARGLTKAGAKKKARKEAALAAEAEVEVEEVPNTILICMVILLNIGLAILFVHLLT
modifications: full-length FLAG/HA tags; adenoviral expression
notes: full-length junctophilin-2, FLAG/HA tagged, expressed by adenovirus
Turning to B1, the “kinetics of steady-state Ca2+ transients and SR Ca2+ loading” value with WT cardiomyocytes is reported as “did not alter”. Also, in the series on RyR2 and Cav1.2, the “interaction with RyR2 and Cav1.2” value was “interact”. In series [1], the “significantly induced known genes (p<0.01)” value was found to be 96 genes and the “significantly repressed known genes (p<0.01)” value was determined as 264 genes. Moreover, in the series on JP2-KD cardiomyocytes (1-Hz field stimulation), the “decay phase (T50) of Ca2+ transients” value is recorded as “shortened decay phase” and the “synchronization of Ca2+ transients (index of desynchronization)” value is listed as “increased synchronization”. Moreover, in the series on JP2-KD cardiomyocytes (1-Hz field stimulation, adenoviral expression), the “increase of Ca2+ transient amplitude” value worked out at 50%. The “SR Ca2+ content” value with JP2-KD cardiomyocytes (caffeine-induced SR Ca2+ release) is “not influenced”.
